Test results from PMC11166458, “Caskin2 is a novel talin- and Abi1-binding protein that promotes cell motility” (Journal of Cell Science, 2024).
No end group written: not given here.

Target: talin-R7/R8 (residues 1358–1653) (mouse, UniProt P26039 1358-1653)
Experiment: MST; Atto488-labeled peptide at 50–200 nM, serial dilution of recombinant R7R8 talin; 20 mM Tris-HCl pH 7.5, 200 mM NaCl, 1 mM TCEP, 0.05% Tween-20; Monolith NT.115
Settings: both partners purified

- Kd: ~2700 nM
B1: Atto488-labeled Caskin2-LD peptide (peptide, UniProt Q8WXE0 1187-1202, looked up)
peptide: STMFDALADQLDAMLD
modifications: also: Atto488 label
notes: Caskin2 C-terminal LD motif peptide; limits 1187–1202 are printed for the Caskin2-LD peptide in the legend of the structure; The text names L1183 as a contact residue of the peptide, which lies outside 1187–1202; source: synthetic peptide (MPIB Core Facility)
